Results reported in patent US20050003416.

Assays:
[1] = tested on: T1, SolCorin-EK (soluble modified human corin, zymogen)
T1 sequence: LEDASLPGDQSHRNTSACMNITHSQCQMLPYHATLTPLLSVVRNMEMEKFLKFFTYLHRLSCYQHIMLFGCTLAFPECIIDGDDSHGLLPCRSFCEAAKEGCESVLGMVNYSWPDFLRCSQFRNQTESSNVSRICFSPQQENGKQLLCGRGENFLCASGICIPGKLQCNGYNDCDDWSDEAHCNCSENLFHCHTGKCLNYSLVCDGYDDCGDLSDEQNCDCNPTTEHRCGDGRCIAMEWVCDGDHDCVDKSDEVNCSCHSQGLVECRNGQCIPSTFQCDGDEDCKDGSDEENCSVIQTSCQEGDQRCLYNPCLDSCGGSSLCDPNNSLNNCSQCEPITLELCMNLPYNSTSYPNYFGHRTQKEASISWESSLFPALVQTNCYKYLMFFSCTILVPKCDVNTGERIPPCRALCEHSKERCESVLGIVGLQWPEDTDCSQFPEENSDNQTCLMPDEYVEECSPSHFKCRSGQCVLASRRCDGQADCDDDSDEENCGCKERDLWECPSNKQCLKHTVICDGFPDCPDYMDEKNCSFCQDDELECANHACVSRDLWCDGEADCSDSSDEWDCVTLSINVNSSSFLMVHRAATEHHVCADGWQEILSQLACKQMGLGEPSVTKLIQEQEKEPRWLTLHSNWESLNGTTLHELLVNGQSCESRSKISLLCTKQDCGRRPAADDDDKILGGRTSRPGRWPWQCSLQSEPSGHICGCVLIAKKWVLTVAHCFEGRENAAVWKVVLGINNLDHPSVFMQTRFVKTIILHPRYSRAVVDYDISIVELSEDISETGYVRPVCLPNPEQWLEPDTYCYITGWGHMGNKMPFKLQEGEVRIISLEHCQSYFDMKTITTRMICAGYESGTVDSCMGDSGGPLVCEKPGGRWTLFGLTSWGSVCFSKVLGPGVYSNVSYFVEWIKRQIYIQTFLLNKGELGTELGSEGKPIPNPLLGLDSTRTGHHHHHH

[2] = tested on: T2, SolCorinPD-EK (soluble modified human corin protease domain, zymogen)
T2 sequence: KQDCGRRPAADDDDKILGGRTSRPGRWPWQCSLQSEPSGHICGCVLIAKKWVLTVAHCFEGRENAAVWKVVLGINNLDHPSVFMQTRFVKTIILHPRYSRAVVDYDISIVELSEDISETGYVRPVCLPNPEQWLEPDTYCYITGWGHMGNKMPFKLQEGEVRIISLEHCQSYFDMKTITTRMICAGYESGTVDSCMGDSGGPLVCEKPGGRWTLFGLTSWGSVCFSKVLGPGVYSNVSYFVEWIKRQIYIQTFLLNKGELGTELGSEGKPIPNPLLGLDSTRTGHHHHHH

[3] = target: T3, recombinant human wild-type pro-ANP with C-terminal V5 and 6xHis tags, P01160
T3 chain: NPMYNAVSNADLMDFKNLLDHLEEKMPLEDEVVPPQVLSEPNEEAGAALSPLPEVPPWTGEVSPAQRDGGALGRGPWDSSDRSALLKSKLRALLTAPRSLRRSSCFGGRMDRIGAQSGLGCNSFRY

Molecule	cleavage of soluble corin by 0, 2, 10, 20 or 40 units enterokinase, 25 C, 4 hrs (anti-V5 Western blot) [1]	cleavage of soluble corin by 0, 2, 10, 20 or 40 units enterokinase, 25 C, 4 hrs (anti-V5 Western blot) [2]	processing of pro-ANP to ANP in mixed conditioned media, 4 C, 3 hours (anti-V5 immunoprecipitation and Western blot) [3]
purified enterokinase (Calbiochem)	both the long form (SolCorin-EK) and short form (SolCorinPD-EK) of soluble modified human corin were cleaved by exposure to enterokinase in a dose-dependent manner	both the long form (SolCorin-EK) and short form (SolCorinPD-EK) of soluble modified human corin were cleaved by exposure to enterokinase in a dose-dependent manner	–
enterokinase-activated SolCorin-EK (protein) chain 1: LEDASLPGDQSHRNTSACMNITHSQCQMLPYHATLTPLLSVVRNMEMEKFLKFFTYLHRLSCYQHIMLFGCTLAFPECIIDGDDSHGLLPCRSFCEAAKEGCESVLGMVNYSWPDFLRCSQFRNQTESSNVSRICFSPQQENGKQLLCGRGENFLCASGICIPGKLQCNGYNDCDDWSDEAHCNCSENLFHCHTGKCLNYSLVCDGYDDCGDLSDEQNCDCNPTTEHRCGDGRCIAMEWVCDGDHDCVDKSDEVNCSCHSQGLVECRNGQCIPSTFQCDGDEDCKDGSDEENCSVIQTSCQEGDQRCLYNPCLDSCGGSSLCDPNNSLNNCSQCEPITLELCMNLPYNSTSYPNYFGHRTQKEASISWESSLFPALVQTNCYKYLMFFSCTILVPKCDVNTGERIPPCRALCEHSKERCESVLGIVGLQWPEDTDCSQFPEENSDNQTCLMPDEYVEECSPSHFKCRSGQCVLASRRCDGQADCDDDSDEENCGCKERDLWECPSNKQCLKHTVICDGFPDCPDYMDEKNCSFCQDDELECANHACVSRDLWCDGEADCSDSSDEWDCVTLSINVNSSSFLMVHRAATEHHVCADGWQEILSQLACKQMGLGEPSVTKLIQEQEKEPRWLTLHSNWESLNGTTLHELLVNGQSCESRSKISLLCTKQDCGRRPAADDDDK chain 2: ILGGRTSRPGRWPWQCSLQSEPSGHICGCVLIAKKWVLTVAHCFEGRENAAVWKVVLGINNLDHPSVFMQTRFVKTIILHPRYSRAVVDYDISIVELSEDISETGYVRPVCLPNPEQWLEPDTYCYITGWGHMGNKMPFKLQEGEVRIISLEHCQSYFDMKTITTRMICAGYESGTVDSCMGDSGGPLVCEKPGGRWTLFGLTSWGSVCFSKVLGPGVYSNVSYFVEWIKRQIYIQTFLLNKGELGTELGSEGKPIPNPLLGLDSTRTGHHHHHH	–	–	pro-ANP was processed to ANP by the long form (SolCorin-EK), but not the short form (SolCorin-PD-EK), of soluble modified human corin upon activation by enterokinase in vitro
enterokinase-activated SolCorinPD-EK (protein) chain 1: KQDCGRRPAADDDDK chain 2: ILGGRTSRPGRWPWQCSLQSEPSGHICGCVLIAKKWVLTVAHCFEGRENAAVWKVVLGINNLDHPSVFMQTRFVKTIILHPRYSRAVVDYDISIVELSEDISETGYVRPVCLPNPEQWLEPDTYCYITGWGHMGNKMPFKLQEGEVRIISLEHCQSYFDMKTITTRMICAGYESGTVDSCMGDSGGPLVCEKPGGRWTLFGLTSWGSVCFSKVLGPGVYSNVSYFVEWIKRQIYIQTFLLNKGELGTELGSEGKPIPNPLLGLDSTRTGHHHHHH	–	–	pro-ANP was processed to ANP by the long form (SolCorin-EK), but not the short form (SolCorin-PD-EK), of soluble modified human corin upon activation by enterokinase in vitro
